T1: hIL-4Rα on cells (human, UniProt P24394 26-825)
T1 sequence: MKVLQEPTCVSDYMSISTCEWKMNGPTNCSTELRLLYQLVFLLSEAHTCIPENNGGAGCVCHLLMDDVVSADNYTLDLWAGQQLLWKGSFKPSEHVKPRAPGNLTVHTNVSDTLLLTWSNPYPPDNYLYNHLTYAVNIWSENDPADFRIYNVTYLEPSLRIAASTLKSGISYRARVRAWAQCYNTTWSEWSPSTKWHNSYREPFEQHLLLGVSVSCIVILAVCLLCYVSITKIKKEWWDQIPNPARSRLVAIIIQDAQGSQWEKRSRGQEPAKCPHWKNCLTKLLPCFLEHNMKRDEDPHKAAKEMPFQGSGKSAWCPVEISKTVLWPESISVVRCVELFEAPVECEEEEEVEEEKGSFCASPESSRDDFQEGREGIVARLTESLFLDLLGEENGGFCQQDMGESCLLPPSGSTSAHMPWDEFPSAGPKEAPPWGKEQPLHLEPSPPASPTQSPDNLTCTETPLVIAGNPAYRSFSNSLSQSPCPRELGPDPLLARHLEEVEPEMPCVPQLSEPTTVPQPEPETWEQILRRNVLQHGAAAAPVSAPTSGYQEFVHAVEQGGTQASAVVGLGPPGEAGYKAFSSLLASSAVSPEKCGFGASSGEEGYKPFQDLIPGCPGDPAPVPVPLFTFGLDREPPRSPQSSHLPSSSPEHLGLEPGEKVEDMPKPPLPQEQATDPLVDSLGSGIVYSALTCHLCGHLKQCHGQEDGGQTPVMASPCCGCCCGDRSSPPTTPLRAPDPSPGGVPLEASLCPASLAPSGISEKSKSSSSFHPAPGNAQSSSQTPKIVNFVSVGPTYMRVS

T2: human IL-4Rα (human, UniProt P24394 26-232)
T2 construct: also called Hu IL-4Rα; hIL-4Rα
T2 sequence: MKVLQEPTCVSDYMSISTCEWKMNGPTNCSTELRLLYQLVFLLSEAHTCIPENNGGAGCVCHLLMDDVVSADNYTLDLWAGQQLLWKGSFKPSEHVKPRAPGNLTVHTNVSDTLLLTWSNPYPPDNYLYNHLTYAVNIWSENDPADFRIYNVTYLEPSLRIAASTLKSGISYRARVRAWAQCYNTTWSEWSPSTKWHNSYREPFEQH

T3: cynomolgus monkey IL-4Rα (cynomolgus monkey, UniProt P24394 26-231 (human entry), limits assumed)
T3 construct: also called Cyno IL-4Rα; cyIL-4Rα
T3 chain: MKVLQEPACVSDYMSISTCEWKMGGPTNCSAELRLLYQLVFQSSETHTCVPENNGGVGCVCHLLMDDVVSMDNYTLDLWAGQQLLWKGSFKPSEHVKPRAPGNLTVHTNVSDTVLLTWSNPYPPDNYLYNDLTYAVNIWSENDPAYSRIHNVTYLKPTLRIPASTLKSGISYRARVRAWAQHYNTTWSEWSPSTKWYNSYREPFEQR


What was measured:
hIL-4Rα on cells [1] = target: T1, hIL-4Rα on cells; assay: cell-based or functional assay
human IL-4Rα = target: T2, human IL-4Rα; assay: SPR, Carterra LSA;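 note: antibodies captured on an anti-human Fc sensor chip, antigen injected at several concentrations, association and dissociation rates fitted with a 1:1 Langmuir model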
Description: (§1) Binding affinity (KD) of antibodies to human and cynomolgus monkey IL-4Rα was determined through surface plasmon resonance (SPR) using a Carterra LSA. Briefly, an HC30M sensor chip that was previously functionalized with a polyclonal mixture of goat anti-human Fc antibody and used to capture purified antibodies at a level between 100-1000 RLU. […] Regeneration of the chip between different concentrations of antigen was performed with 200 mM phosphoric acid and antibody was captured again as previously described. Association and dissociation rate constants were subsequently determined through fitting to a 1:1 Langmuir binding model using the Kinetics Software from Carterra from which a KD value was derived.

cynomolgus monkey IL-4Rα = target: T3, cynomolgus monkey IL-4Rα; assay: SPR, Carterra LSA;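 note: antibodies captured on an anti-human Fc sensor chip, antigen injected at several concentrations, association and dissociation rates fitted with a 1:1 Langmuir model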
Description: as §1

hIL-4Rα on cells [2] = target: T1, hIL-4Rα on cells; assay: cell-based or functional assay; remark: listed apart in the source
hIL-4Rα on cells [3] = target: T1, hIL-4Rα on cells; assay: cell-based or functional assay; remark: listed apart in the source
hIL-4Rα on cells [4] = target: T1, hIL-4Rα on cells; assay: FACS on HEK293 cells, competitor biotin-hIL-4;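 note: HEK293 cells stably co-expressing hIL-13Rα and hIL-4Rα, stained for 1 h at 4 °C, read-out as mean fluorescence intensity by flow cytometry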
hIL-4Rα on cells [5] = target: T1, hIL-4Rα on cells; assay: FACS on HEK293 cells, competitor biotin-hIL-13;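 note: stably transduced cells co-expressing both receptor chains, stained cold, with cell-bound signal read as mean fluorescence intensity by flow cytometry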
Description: Briefly, HEK293 previously transduced to stably express both hIL-13Rα and hIL-4Rα were cultured and harvested. Cells were seeded at 200,000 cells in 100 uL per well. Cells were washed and the supernatant discarded. […] The cells were stained in this mixture at 4° C. for 1 hour. […] Cells were incubated 4° C. for 1 hour, protected from light. Cells were then washed and the MFI of cells in each well were recorded by FACS using a BD FACSCanto II. Subsequent data were analyzed using GraphPad Prism.

Binder	Relative Inhibition of IL-4 induced TF-1 Proliferation IC50 (hIL-4Rα on cells [1])	Relative Inhibition of IL-13 induced TF-1 Proliferation IC50 (hIL-4Rα on cells [1])	KD Relative to Dupilumab (human IL-4Rα)	Kd (human IL-4Rα)	KD Relative to Dupilumab (cynomolgus monkey IL-4Rα)	Kd (cynomolgus monkey IL-4Rα)	Relative Inhibition of IL-4 induced TARC IC50 (hIL-4Rα on cells [2])	Relative Inhibition of IL-13 induced TARC IC50 (hIL-4Rα on cells [2])	Relative Inhibition of IL-4 induced pSTAT6 IC50 (hIL-4Rα on cells [3])	Relative Inhibition of IL-13 induced pSTAT6 IC50 (hIL-4Rα on cells [3])	Relative Blockade of IL-4 Binding IC50 (hIL-4Rα on cells [4])	Relative Blockade of IL-13 Binding IC50 (hIL-4Rα on cells [5])
Construct 27 (mAb435) (antibody, IgG4, V domains shown, VH/VL only) VH: EVQLVESGGGLEQPGGSLRLSCAGSGFTFTDFAMTWVRQAPGKGLEWVSSISGSGGNKYYADSVKGRFTISRDNSKNTLYLQMNSLRAEDTAVYYCAKDRLSVTVRPRYYGLDVWGQGTTVTVSS VL: DIVMTQSPLSLPVTPGEPASISCTASQSLLYSIGYNYVDWYLQKSGQSPQLLIYLGNKRASGVPDRFSGSGSGTDFTLKISRVEAEDVGFYYCMQSLTSPYTFGQGTKLEIK	0.962 relative to dupilumab	0.773 relative to dupilumab	1.12	0.0126 nM	0.28	176 nM	0.547 relative to dupilumab	1.83 relative to dupilumab	0.676 relative to dupilumab	0.38 relative to dupilumab	0.99 relative to dupilumab	0.592 relative to dupilumab
Construct 28 (mAb436) (antibody, IgG4, V domains shown, VH/VL only) VH: EVQLVESGGGLEQPGGSLRLSCAGSGFTFRDFAMTWVRQAPGKGLEWVSSVSGSGGNTYYADSVKGRFTISRDNSKNTLYLQMNSLRAEDTAVYYCAKDRLSVTVRPRYYGLDVWGQGTTVTVSS VL: DIVMTQSPLSLPVTPGEPASISCTSSQSLLYSIGYNYVDWYLQKSGQSPQLLIYLGNKRASGVPDRFSGSGSGTDFTLKISRVEAEDVGFYYCMQSLQTPYTFGQGTKLEIK	1.19 relative to dupilumab	0.634 relative to dupilumab	0.69	0.00777 nM	0.09	54.7 nM	0.58 relative to dupilumab	1.81 relative to dupilumab	0.999 relative to dupilumab	0.497 relative to dupilumab	0.849 relative to dupilumab	0.611 relative to dupilumab
Construct 33 (mAb450) (antibody, IgG4, V domains shown, VH/VL only) VH: EVQLVESGGGLEQPGGSLRLSCAGSGFTFRDFAMTWVRQAPGKGLEWVSSISGSGGNIYYADSVKGRFTISRDNSKNTLYLQMNSLRAEDTAVYYCAKDRVSITIRPRYYGLDVWGQGTTVTVSS VL: DIVMTQSPLSLPVTPGEPASISCTASQSLLYSIGYNYVDWYLQKSGQSPQLLIYLGSKRASGVPDRFSGSGSGTDFTLKISRVEAEDVGFYYCMQALGSPYTFGQGTKLEIK	1.05 relative to dupilumab	0.926 relative to dupilumab	0.78	0.00875 nM	0.05	33.9 nM	3.2 relative to dupilumab	1.07 relative to dupilumab	0.888 relative to dupilumab	1.59 relative to dupilumab	1.01 relative to dupilumab	1.21 relative to dupilumab
Construct 34 (mAb459) (antibody, IgG4, V domains shown, VH/VL only) VH: EVQLVESGGGLEQPGGSLRLSCAGSGFTFRDFAMTWVRQAPGKGLEWVSSISGSGDNIYYADSVKGRFTISRDNSKNTLYLQMNSLRAEDTAVYYCAKDRLSKTIRPRYYGLDVWGQGTTVTVSS VL: DIVMTQSPLSLPVTPGEPASISCRSSQGLLYSIGYNYVDWYLQKSGQSPQLLIYLGNKRASGVPDRFSGSGSGTDFTLKISRVEAEDVGFYYCMQALDTPYTFGQGTKLEIK	1.46 relative to dupilumab	1.55 relative to dupilumab	1.01	0.0114 nM	0.53	334 nM	4.32 relative to dupilumab	1.35 relative to dupilumab	0.464 relative to dupilumab	2.42 relative to dupilumab	1.23 relative to dupilumab	1.21 relative to dupilumab
Construct 35 (mAb467) (antibody, IgG4, V domains shown, VH/VL only) VH: EVQLVESGGGLEQPGGSLRLSCAGSGFTFRTYAMTWVRQAPGKGLEWVSSISGSGGNTYYADSVKGRFTISRDNSKNTLYLQMNSLRAEDTAVYYCAKDRVSITIRPRYYGLDVWGQGTTVTVSS VL: DIVMTQSPLSLPVTPGEPASISCTSSQSLLYSIGKNYVDWYLQKSGQSPQLLIYEGNNRATGVPDRFSGSGSGTDFTLKISRVEAEDVGFYYCMQSLTSPYTFGQGTKLEIK	0.948 relative to dupilumab	1.11 relative to dupilumab	0.99	0.0112 nM	0.29	180 nM	1.92 relative to dupilumab	1.65 relative to dupilumab	0.766 relative to dupilumab	2.71 relative to dupilumab	1.29 relative to dupilumab	1.25 relative to dupilumab
Construct 36 (mAb469) (antibody, IgG4, V domains shown, VH/VL only) VH: EVQLVESGGGLEQPGGSLRLSCAGSGFTFRDFAMTWVRQAPGKGLEWVSSISGSGGNIYYADSVKGRFTISRDNSKNTLYLQMNSLRAEDTAVYYCAKDRLSKTIRPRYYGLDVWGQGTTVTVSS VL: DIVMTQSPLSLPVTPGEPASISCRSSQSLLYSIGKNYVDWYLQKSGQSPQLLIYEGNNRASGVPDRFSGSGSGTDFTLKISRVEAEDVGFYYCMQSLTSPYTFGQGTKLEIK	1.05 relative to dupilumab	1.25 relative to dupilumab	0.99	0.0112 nM	0.61	385 nM	1.78 relative to dupilumab	0.999 relative to dupilumab	0.957 relative to dupilumab	2.16 relative to dupilumab	1.18 relative to dupilumab	1.22 relative to dupilumab
Construct 37 (mAb470) (antibody, IgG4, V domains shown, VH/VL only) VH: EVQLVESGGGLEQPGGSLRLSCAGSGFTFRTYAMTWVRQAPGKGLEWVSSISGGGGNTYYADSVKGRFTISRDNSKNTLYLQMNSLRAEDTAVYYCAKDRLSVTVRPRYYGLDVWGQGTTVTVSS VL: DIVMTQSPLSLPVTPGEPASISCRASQSLLYSVGYNYVDWYLQKSGQSPQLLIYLGNNRASGVPDRFSGSGSGTDFTLKISRVEAEDVGFYYCMQSLTSPYTFGQGTKLEIK	0.943 relative to dupilumab	0.919 relative to dupilumab	1.03	0.0116 nM	0.23	143 nM	1.16 relative to dupilumab	0.868 relative to dupilumab	0.713 relative to dupilumab	1.22 relative to dupilumab	1.08 relative to dupilumab	1.05 relative to dupilumab
Construct 39 (mAb473) (antibody, IgG4, V domains shown, VH/VL only) VH: EVQLVESGGGLEQPGGSLRLSCAGSGFTFRDSAMTWVRQAPGKGLEWVSSISGSGDNTYYADSVKGRFTISRDNSKNTLYLQMNSLRAEDTAVYYCAKDRLSITVRPRYYGLDVWGQGTTVTVSS VL: DIVMTQSPLSLPVTPGEPASISCRSSQSLLYSIGKNYVDWYLQKSGQSPQLLIYLGNKRASGVPDRFSGSGSGTDFTLKISRVEAEDVGFYYCMQALGSPYTFGQGTKLEIK	1.18 relative to dupilumab	1.21 relative to dupilumab	0.92	0.0104 nM	0.27	168 nM	1.65 relative to dupilumab	5.23 relative to dupilumab	0.81 relative to dupilumab	2.17 relative to dupilumab	1.09 relative to dupilumab	1.05 relative to dupilumab

Source: patent publication US20260193366A1 (APOGEE THERAPEUTICS, published 2026)
